Source: publication PMC6402988 (Nature structural & molecular biology, 2019)
Positions count from the first letter of the chain named.

B1: ADI-15946 mutant Y100AA (antibody, V domains shown)
VH: EVQLVESGGGLVKPGGSLRLSCAASGFTFSNAWMSWVRQAPGKGLEWVGRIKSKTDGGTIDYAAPVKGRFTISRDDSKNTVYLQMTSLKTEDTAVYYCTTYTEDMRAFDWLLRGGETFDYWGQGTLVTVSS
VL: DIRLTQSPSSLSASVGDRVTITCRASHYISTYLNWYQQKPGKAPKLLIYAASNLQSGVPSRFSGSGFGTDFSLTISSLQPEDFATYHCQQSYSTPGRYTFGQGTKVEIK
B2: 46M1 (antibody, V domains shown)
VH: B1 VH with R106A, A107Y
VL: B1 VL
B3: ADI-15946 IgG (antibody, V domains shown)
VH: B1 VH with A107Y
VL: B1 VL

How the values were obtained:
SUDV GP ectodomain = SUDV GP ectodomain (Sudan ebolavirus; strain not named for …, UniProt Q66814); assay: ELISA
rVSV-EBOV GP (wild type) = rVSV-EBOV GP (wild type) (Zaire ebolavirus (EBOV), UniProt Q05320); assay: ELISA

| Binder | binding result (SUDV GP ectodomain) | binding result (rVSV-EBOV GP (wild type)) |
| --- | --- | --- |
| B1 | binds |  |
| B2 | binds |  |
| B3 | binds | binds |
